Sequences and labels used below:
B1: KRT34 (parent)
chain: YQSYFKTIEELQQKILCAKAENAR

Drawing on the supplement of paper PMC10567573, this text covers protein stability index for 94 variants.
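Note: lentivirally expressed fusions sorted by FACS into six bins by GFP to DsRed ratio, PSI derived from sequencing read proportions per bin multiplied by bin number.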

The variants in the series derive from B1. Put plainly: protein stability index of a GFP-peptide fusion (GPS, HEK-293T) (PSI 1-6); higher = more stable. The following applies: c terminus: a fixed tail appended.
Consider YQKYFKTIEELQQKILCAKAENAR, for which the protein stability index came to 1.96.

In the case of YQYYFKTIEELQQKILCAKAENAR, the protein stability index was 2.13.

For the variant YQVYFKTIEELQQKILCAKAENAR, the protein stability index amounted to 1.62.

With YQQYFKTIEELQQKILCAKAENAR, the protein stability index was found to be 2.3.

In the case of YQMYFKTIEELQQKILCAKAENAR, the protein stability index stood at 1.77.

Regarding YQRYFKTIEELQQKILCAKAENAR, the protein stability index amounted to 1.79.

Regarding YQDYFKTIEELQQKILCAKAENAR, the protein stability index is 1.98.

As to YQPYFKTIEELQQKILCAKAENAR, the protein stability index is 1.97.

As for YQHYFKTIEELQQKILCAKAENAR, the protein stability index is 1.5.

For YQNYFKTIEELQQKILCAKAENAR, the protein stability index was determined as 2.23.

With YQIYFKTIEELQQKILCAKAENAR, the protein stability index is 1.61.

As to YQFYFKTIEELQQKILCAKAENAR, the protein stability index came to 1.8.

In the case of YQTYFKTIEELQQKILCAKAENAR, the protein stability index amounted to 1.61.

As to YQGYFKTIEELQQKILCAKAENAR, the protein stability index amounted to 1.85.

Regarding YQEYFKTIEELQQKILCAKAENAR, the protein stability index was 1.67.

As to YQCYFKTIEELQQKILCAKAENAR, the protein stability index turned out to be 1.96.

Consider YQSYFKEIEELQQKILCAKAENAR, for which the protein stability index was determined as 2.58.

Take YQSYFKKIEELQQKILCAKAENAR: the protein stability index worked out at 1.58.

With YQSYFKVIEELQQKILCAKAENAR, the protein stability index worked out at 1.72.

Turning to YQSYFKSIEELQQKILCAKAENAR, the protein stability index was found to be 3.16.

Take YQSYFKHIEELQQKILCAKAENAR: the protein stability index stood at 2.35.

Take YQSYFKCIEELQQKILCAKAENAR: the protein stability index was 1.64.

As to YQSYFKRIEELQQKILCAKAENAR, the protein stability index came to 1.86.

Regarding YQSYFKMIEELQQKILCAKAENAR, the protein stability index was 1.67.

On to YQSYFKIIEELQQKILCAKAENAR, for which the protein stability index was found to be 1.84.

YQSYFKYIEELQQKILCAKAENAR: the protein stability index turned out to be 2.24.

With YQSYFKAIEELQQKILCAKAENAR, the protein stability index worked out at 2.2.

On to YQSYFKQIEELQQKILCAKAENAR, for which the protein stability index is 2.07.

As for YQSYFKPIEELQQKILCAKAENAR, the protein stability index stood at 1.77.

With YQSYFKLIEELQQKILCAKAENAR, the protein stability index came to 1.64.

In the case of YQSYFKNIEELQQKILCAKAENAR, the protein stability index is 2.34.

YQSYFKGIEELQQKILCAKAENAR: the protein stability index is 1.96.

For YQSYFKDIEELQQKILCAKAENAR, the protein stability index came out at 2.44.

In the case of YQSYFKFIEELQQKILCAKAENAR, the protein stability index was determined as 1.81.

With YQSYFKTIEELSQKILCAKAENAR, the protein stability index came out at 1.77.

Turning to YQSYFKTIEELKQKILCAKAENAR, the protein stability index came out at 2.

YQSYFKTIEELDQKILCAKAENAR: the protein stability index amounted to 1.69.

With YQSYFKTIEELPQKILCAKAENAR, the protein stability index is 1.4.

On to YQSYFKTIEELGQKILCAKAENAR, for which the protein stability index is 1.97.

For the variant YQSYFKTIEELEQKILCAKAENAR, the protein stability index is 1.48.

YQSYFKTIEELNQKILCAKAENAR: the protein stability index is 1.65.

Regarding YQSYFKTIEELAQKILCAKAENAR, the protein stability index is 1.6.

With YQSYFKTIEELCQKILCAKAENAR, the protein stability index came to 1.78.

Turning to YQSYFKTIEELRQKILCAKAENAR, the protein stability index stood at 2.63.

For YQSYFKTIEELHQKILCAKAENAR, the protein stability index worked out at 2.34.

Turning to YQSYFKTIEELTQKILCAKAENAR, the protein stability index is 2.21.

Take YQSYFKTIEELFQKILCAKAENAR: the protein stability index was 2.02.

Regarding YQSYFKTIEELLQKILCAKAENAR, the protein stability index came to 1.9.

Take YQSYFKTIEELMQKILCAKAENAR: the protein stability index came out at 2.15.

For YQSYFKTIEELIQKILCAKAENAR, the protein stability index came to 3.66.

Consider YTSYFKTIEELQQKILCAKAENAR, for which the protein stability index was determined as 1.59.

As to YVSYFKTIEELQQKILCAKAENAR, the protein stability index stood at 1.54.

On to YRSYFKTIEELQQKILCAKAENAR, for which the protein stability index worked out at 2.25.

Turning to YWSYFKTIEELQQKILCAKAENAR, the protein stability index was determined as 2.39.

Consider YSSYFKTIEELQQKILCAKAENAR, for which the protein stability index is 2.5.

In the case of YYSYFKTIEELQQKILCAKAENAR, the protein stability index was 2.04.

For the variant YQSYFKTIRELQQKILCAKAENAR, the protein stability index is 1.75.

In the case of YQSYFKTITELQQKILCAKAENAR, the protein stability index came to 1.84.

For YQSYFKTIYELQQKILCAKAENAR, the protein stability index was 1.64.

On to YQSYFKTIGELQQKILCAKAENAR, for which the protein stability index stood at 1.64.

For the variant YQSYFKTISELQQKILCAKAENAR, the protein stability index amounted to 1.99.

For the variant YQSYFKTIFELQQKILCAKAENAR, the protein stability index worked out at 1.73.

YQSYFKTIWELQQKILCAKAENAR: the protein stability index was 2.23.

YQSYFKTIVELQQKILCAKAENAR: the protein stability index is 3.47.

For the variant YQSYFKTIAELQQKILCAKAENAR, the protein stability index was 1.77.

On to YQSYFKTICELQQKILCAKAENAR, for which the protein stability index is 1.87.

Consider YQSYFKTIKELQQKILCAKAENAR, for which the protein stability index was found to be 2.2.

As to YQSYFKTIQELQQKILCAKAENAR, the protein stability index turned out to be 1.9.

Regarding YQSYFKTIIELQQKILCAKAENAR, the protein stability index was determined as 2.

On to YQSYFKTIMELQQKILCAKAENAR, for which the protein stability index came to 3.64.

In the case of YQSYFKTIDELQQKILCAKAENAR, the protein stability index was determined as 2.25.

On to YQSYFKTINELQQKILCAKAENAR, for which the protein stability index is 2.45.

Regarding YQSYFKTIHELQQKILCAKAENAR, the protein stability index came to 2.46.

YQSYFKTIPELQQKILCAKAENAR: the protein stability index was 1.29.

Take YQSYFKTILELQQKILCAKAENAR: the protein stability index was determined as 1.53.

Consider YQSYFKTIEEIQQKILCAKAENAR, for which the protein stability index came to 2.13.

As to YQSYFKTIEEMQQKILCAKAENAR, the protein stability index stood at 1.81.

Turning to YQSYFKTIEEPQQKILCAKAENAR, the protein stability index was 2.3.

Regarding YQSYFKTIEERQQKILCAKAENAR, the protein stability index came out at 1.83.

On to YQSYFKTIEEGQQKILCAKAENAR, for which the protein stability index came to 2.58.

As to YQSYFKTIEEAQQKILCAKAENAR, the protein stability index stood at 1.79.

Turning to YQSYFKTIEETQQKILCAKAENAR, the protein stability index amounted to 1.62.

Regarding YQSYFKTIEEVQQKILCAKAENAR, the protein stability index is 1.35.

As to YQSYFKTIEEWQQKILCAKAENAR, the protein stability index turned out to be 1.93.

Regarding YQSYFKTIEENQQKILCAKAENAR, the protein stability index came out at 2.41.

With YQSYFKTIEESQQKILCAKAENAR, the protein stability index was 1.2.

Take YQSYFKTIEEDQQKILCAKAENAR: the protein stability index amounted to 1.5.

For the variant YQSYFKTIEEFQQKILCAKAENAR, the protein stability index came to 1.4.

For the variant YQSYFKTIEECQQKILCAKAENAR, the protein stability index stood at 2.56.

As to YQSYFKTIEEKQQKILCAKAENAR, the protein stability index was 2.34.

Consider YQSYFKTIEEYQQKILCAKAENAR, for which the protein stability index is 2.08.

On to YQSYFKTIEEEQQKILCAKAENAR, for which the protein stability index worked out at 1.88.

In the case of YQSYFKTIEEQQQKILCAKAENAR, the protein stability index was 1.98.

YQSYFKTIEEHQQKILCAKAENAR: the protein stability index came to 1.55.
